The values that follow come from US12060433B2, “CD73 inhibitor and A2A/A2B adenosine receptor inhibitor combination therapy” (Incyte Corporation, priority 2020, dated 2024).

For one data set, the target named is T1, human CD73 (Homo sapiens, UniProt P21589).
T1 sequence (P21589 27-549 limits assumed): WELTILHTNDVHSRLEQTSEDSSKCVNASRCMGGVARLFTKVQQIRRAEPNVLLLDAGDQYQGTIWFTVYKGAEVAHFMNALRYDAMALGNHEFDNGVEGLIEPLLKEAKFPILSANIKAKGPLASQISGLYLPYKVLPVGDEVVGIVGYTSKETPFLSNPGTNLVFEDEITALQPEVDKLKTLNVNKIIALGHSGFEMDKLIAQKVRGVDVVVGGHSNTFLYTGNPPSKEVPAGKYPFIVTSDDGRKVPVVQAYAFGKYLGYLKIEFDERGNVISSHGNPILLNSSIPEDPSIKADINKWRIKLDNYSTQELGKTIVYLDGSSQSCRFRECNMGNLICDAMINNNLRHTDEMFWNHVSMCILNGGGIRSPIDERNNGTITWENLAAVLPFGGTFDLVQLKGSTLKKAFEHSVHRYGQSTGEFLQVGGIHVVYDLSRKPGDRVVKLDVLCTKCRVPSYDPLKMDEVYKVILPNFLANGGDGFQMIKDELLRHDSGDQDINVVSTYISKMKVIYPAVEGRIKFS
The data set can be described thus: Epitope mapping by hydrogen-deuterium exchange mass spectrometry (HDX). Particulars: Fab in complex with CD73.

The target in data set [1] is T2, CD73 on the cell surface of MDA-MB-231 cells (Homo sapiens, UniProt P21589).
T2 construct: endogenous in cells; host or cells: MDA-MB-231
T2 sequence (P21589 27-549): T1 sequence (P21589 27-549 limits assumed)
Kind of data set: CD73 cell surface levels after 24 hour antibody treatment. In kind it is cell-based. Particulars: 10 μg/mL antibody. How it is done: Indicated antibodies were added at a final concentration of 10 μg/mL and plates were incubated at 37° C. 5% CO2 for 24 hours. Cells were recovered using Versene and transferred to new 96-well plates. Cells were washed and stained for 30 minutes on ice with 10 μg/mL of non-competing antibody directly conjugated to Dy650. Cells were washed and analyzed by flow cytometry. CD73 cell surface receptor density was determined by Antibody Binding Capacity (ABC) using Quantum Simply Cellular beads.

Data set [2] concerns the target T3, recombinant human CD73 (rhuCD73) (SEQ ID NO:70) (Homo sapiens, UniProt P21589).
T3 sequence (P21589 27-549): T1 sequence (P21589 27-549 limits assumed)
Kind of data set: Soluble CD73 inhibition (AMP-Glo). In kind it is biochemical. Particulars: 0.008 μg/mL rhuCD73, 100 μM AMP. How it is done:
To measure the ability of the CD73 antibodies to inhibit CD73 activity of recombinant protein, recombinant human CD73 (rhuCD73) (SEQ ID NO:70) was added to 96-well plates at a final concentration of 0.008 μg/mL with the indicated concentration of antibodies (FIG. 4) or adenosine 5′-[α,β-methylene]diphosphate (APCP) and incubated at 37° C. 5% CO2 for 30 minutes. After the 30 minute incubation, AMP was added to a final concentration of 100 μM and the reactions were incubated an additional 3 hours at 37° C. 5% CO2. 25 μL of supernatant was transferred into new 96-well plates. The AMP-Glo Assay was used according to the manufacturer's instructions. RLU is a directly correlated with the AMP concentration in this assay. Results are depicted in FIG. 4.
Results are depicted in FIG. 9.

Data set [3] deals with T4, cell surface CD73 on MDA-MB-231 cells (Homo sapiens, UniProt P21589).
T4 construct: endogenous in cells; host or cells: MDA-MB-231
T4 sequence (P21589 27-549): T1 sequence (P21589 27-549 limits assumed)
The data set can be described thus: Binding to cell surface CD73 by flow cytometry (GMFI), MDA-MB-231 cells. In kind it is cell-based. Particulars: high levels of surface CD73. The protocol: To test the binding of humanized and non-humanized CL25 clones to cell surface CD73, MDA-MB-231 or A375 cells were washed and added to 96-well plates at 5×10^4 cells/well. The cells were stained with the indicated concentration of antibodies for 30 minutes on ice (FIG. 2A and FIG. 2B). Next, the cells were washed and stained using goat anti-mouse secondary conjugated to phycoerythrin (PE) for 30 minutes on ice. The cells were then washed and analyzed by flow cytometry. Geometric mean fluorescence intensity (GMFI) of CD73 staining was graphed (FIG. 2A and FIG. 2B).
Cells were stained with the indicated concentration of antibodies for 1 hour on ice. Cells were then washed and stained goat anti-mouse secondary conjugated to PE for 30 minute on ice. Cells were then washed and analyzed by flow cytometry. The GMFI of CD73 staining is graphed (FIG. 13).
In general terms: Flow cytometry measures light scatter and fluorescence of single cells or particles in a stream.

Data set [4] addresses T5, human CD73 (SEQ ID NO: 70) (Homo sapiens, UniProt P21589).
T5 construct: purchased BPS Bioscience
T5 sequence (P21589 27-549): T1 sequence (P21589 27-549 limits assumed)
Kind of data set: SPR (Biacore 8K) binding affinity and kinetics to human CD73. The protocol:
The SPR running buffer (10 mM HEPES, 150 mM NaCl, 3 mM EDTA and 0.05% v/v Surfactant P20, pH 7.4) was prepared from 10×HBS-EP Buffer (GE Healthcare). Anti-human Fc antibodies (GE Healthcare) were immobilized via amine coupling on all sixteen flow cells of an S series sensor chip CM5 (GE Healthcare). The immobilization levels were ˜9000 RU for all flow cells. The desired capturing level of anti-CD73 antibody was achieved by flowing appropriate concentration of anti-CD73 antibody through the active flow cell of each channel. The non-cleavable ADP analogue APCP (adenosine-5′-(α,β-methylene) diphosphate) with the presence of Zn^2+ can be used to shift the CD73 conformational equilibrium from open towards closed. Therefore, recombinant CD73 was incubated with SPR running buffer in the presence of 100 μM APCP and 10 μM ZnCl2 (closed SPR running buffer) to study the binding of anti-CD73 antibody to the CD73 in the closed conformation. To achieve this, the ABA injection feature in Biacore 8K was used. For open conformation, the ABA injection sequence started with 60 seconds injection of running buffer. Then, CD73 3-fold serial dilution concentration series prepared from CD73 stock (BPS Bioscience) and running buffer were injected for 180 seconds immediately followed by running buffer for 240 seconds. For closed conformation, the normal SPR running buffer was replaced by closed SPR running buffer. Surface was regenerated with 30 seconds injection of 3 M MgCl2. […] Binding affinities and kinetic association and dissociation rate constants to human, cynomolgus, and mouse CD73 in either open or closed conformations are shown in Table 8 below. The results in Table 8 ensure cynomolgus pharmacokinetic data will reflect human pharmacokinetic data.
Binding affinities and kinetic association and dissociation rate constants to human, cynomolgus, and mouse CD73 in either open or closed conformations are shown in Table 9 below.

Setting [5] is: human CD73, closed conformation (100 μM APCP, 10 μM ZnCl2).
[6] abbreviates: human CD73, open conformation, 25° C.

B1: CL25: chimeric anti-human CD73 monoclonal antibody, murine VH SEQ ID NO:26 and VL SEQ ID NO:27 with human IgG1 Fc (antibody, V domains shown)
VH: QVQLQQSGAELARPGASVKLSCRASGYTFTSYGLSWVKQRTGQGLEWIGEIYPGSGNTYYNEKFKGKATLTADKSSSTAYMELRSLTSEDSAVYFCARYDYLGSSYGFDYWGQGTTLTVSS
VL: DIVMTQSHKFMSTSVGDRVSITCKASQDVSTAVAWYQQKPGQSPKLLIYSASYRYNGVPDRFTGSGSGTDFTFTISSVQAEDLAVYYCQQHYNTPYTFGGGTKLEIK
modifications: human IgG1 Fc constant regions without entry
In the case of B1, in the data set with human CD73, the “epitope determined by HDX-MS” value is recorded as “TKVQQIRRAEPNVL”. Further, the “level of CD73 on the cell surface” value in data set [1] is recorded as “decreased the levels of cell surface CD73”. Moreover, in data set [2], the “hook-effect in inhibition of recombinant CD73” value is listed as “no hook-effect” and the “inhibition of recombinant CD73” value is reported as “high potency”. For the same molecule, the “cell binding (GMFI)” value in data set [3] is reported as “high potency binding”. In data set [4] (setting [5]), this molecule had a ka of 903000 M⁻¹ s⁻¹ and a kd of 0.000344 s⁻¹. In addition, in data set [4] (setting [6]), the ka is more than 1e+06 M⁻¹ s⁻¹ and the kd turned out to be 0.000394 s⁻¹.
